This note sets out measurements from the nanobody polyreactivity screen of Harvey et al. (2022).

A short description of this data set: yeast display, Sf9 membrane polyspecificity reagent, FACS + sequencing; frameworks hold sequencing errors. The method, boiled down: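 In a synthetic yeast display library (Saccharomyces cerevisiae BJ5465), nanobody expression was induced with galactose for 36–48 hours. FACS gates were set low and high (top ~1%) using anti-HA fluorescence for expression and streptavidin fluorescence for binding of the Sf9 membrane reagent. Each polyreactivity label is drawn from the gate of origin.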
For “QVQLVESGGGLVQAGGSLRLSCAASGFTFGYNAMGWYRQAPGKERELVAAISWSGGTYYADSVKGRFTISRDNAKNTVYLQMNSLKPEDTAVYYCAAVVVYWTSQIYYDGYYYWGQGTQVTVSS”, the “polyreactivity (PSR sort gate)” value is on record as “high polyreactivity”. With “QVQLVESGGGLVQAGGSLRLSCAASGSILGDYGMGWYRQAPGKERELVAAITWNGDSTYYADSVKGRFTISRDNAKNTVYLQMNSLKPEDTAVYYCAADLQDYKYYPWYGYWGQGTQVTVSS”, the “polyreactivity (PSR sort gate)” value was “low polyreactivity”. With “QVQHVESGGGLVQAGGSLRLSCAASGRIFSSNAMGWYRQAPGKERELVASITSGGNTNYADSVKGRFTISRDNAKNTVYLQMNSLKPEDTAVYYCAALSKTRCGYWGQGTQVTVSS”, the “polyreactivity (PSR sort gate)” value is recorded as “high polyreactivity”. On to “QVQLVESGGGLVQAGGSLRLSCAASGRTFTYYAMGWYRQAPGKERELVADINRSGGDTYYADSVKGRFTISRDNAKNTVYLQMNSLKPEDTAVYYCAADDWGAQHRYDYWGQGTQVTVSS”, for which the “polyreactivity (PSR sort gate)” value was “low polyreactivity”. For “QVQLVESGGGLVQAGGSLRLSCAASGLIFSTYAMGWYRQAPGKERELVAAINSGGGNTYYADSVKGRFTISRDNAKNTVYLQMNSLKPEDTAVYYCNAQWRRHPGIWHYGYWGQGTQVTVSS”, the “polyreactivity (PSR sort gate)” value was “low polyreactivity”.

As for “QVQLVESGGGLVQAGGSLRLSCAASGSISYFYAMGWYRQAPGKERELVAAINSGDDTYADSVKGRFTISRDNAKNTVYLQMNSLKPEDTAVYYCAVKYGGYESHYYRRPHYDYWGQGTQVTVSS”, the “polyreactivity (PSR sort gate)” value was “low polyreactivity”.

With “QVQLVESCGGLVQAGGSLRLSCAASGSTFRYYPMGWYRPATGKETELVASISIGGGSTYYADSVKGRFTISRDHAKNTVYLQMNSLKPEDTAGYYCAAERTIRAARPFFRTFDYWGQGTQVTVSS”, the “polyreactivity (PSR sort gate)” value is listed as “low polyreactivity”. Consider “QVQLVESGGGLVQAGGSLRLSCAASGRIFQSNAMGLYRQAPGKERELVAAISYSGGGSTYYADSVNGRFTISRDNAKNTVYLQMNSLKPEDTAVYYCAARRVGGCFYTWRNPAYEYWGQGTQVTVSS”, for which the “polyreactivity (PSR sort gate)” value is given as “high polyreactivity”. Regarding “QVQLVESGGGLVQAGGSLRLSCAASGYTFIYYAMGWYRQAPGKERELVATISIDGSTNYADSVKGRFTISRDNAKYSVYLQMNSLKREDTAVYYCNRERYEDYDYWGQGTQVTVSS”, the “polyreactivity (PSR sort gate)” value is given as “high polyreactivity”. For “QVQRVESGGDLVQAGGSLRLSCAASGFIYTYYAMGWYRLAPGKERDFVATINWSDGSTRYADSVKGRFTISRDNAKNTVYLQMNSLKPEDTAVYYCAKDWFNRPSGEMDYCGQGTQVTVSS”, the “polyreactivity (PSR sort gate)” value is reported as “low polyreactivity”. “QVQLVESGGGLVQAGGSLRLSCAASGSTYYGNAMGWYRQAPGKERQLVAAIRSRGGSTYYADSVKGRFTISRDNAKNTVYLQMNSLKPEDPAVYYCDAKQPSWKYAYYYWGQGTQVTVSS”: the “polyreactivity (PSR sort gate)” value is recorded as “high polyreactivity”.

Turning to “QVQLVYSGGGLVQAGGSLSLSCAASGSTIDGYAMGWYRQAPGKERELVAAISSSGASTYYADSVKGRFTISRDNAKNTVYLQMNSLKPEDTAVYYCNRVTCQQKNDYWGQGTQVTVSS”, the “polyreactivity (PSR sort gate)” value is recorded as “high polyreactivity”.

With “QVQLVESGGGLVQAGGSLRLSCAASGNIFRYYTMGWYRQAPGKERELVATISYADSVKGRFTISRDNAKNTVYLQMNSLKPEDTAVYYCKADFAPWDKQDYPYDYDYWGQGTQVTVSS”, the “polyreactivity (PSR sort gate)” value is recorded as “low polyreactivity”. On to “QVQLVESGGGLVQAGGSLRLSCAASGYIFGIYAMGWYRQAPGKERELVARINWSGGRTYYADSVKGRFTISRDNAKNTVYLQMNSLKTEDTAVYYCAARSSYRKMDYWGQGTQVTVSS”, for which the “polyreactivity (PSR sort gate)” value is listed as “high polyreactivity”. In the case of “QVQLVESGGGLVQAGGSLRLICAASASIFQPYAMGWYRQAPGKERELVAAISKSGGNTYYADSVKGRFSSSRDYAKNTVYLQMNRLKPEVSAVYYCAALDYWGQGTQVTLSS”, the “polyreactivity (PSR sort gate)” value is on record as “low polyreactivity”. As to “QVQLVESGGGLVQAGGSLRLSCADSGRTFGPNAMGWYRQAPGKERELVAAITGGGSTYYADSVKGRFTISRDNAKNTVYLQMNSLKPEDTAVYYCAAVWTYWYYGDDYWGQGTQVTVSS”, the “polyreactivity (PSR sort gate)” value is on record as “low polyreactivity”.

“QVQLVESGGGLVQAGGSLRLSCAASGRIFIRNAMGWYRQAPGKERELVAAITWSGGGTYYADSVKGRFTISRDNAKNTVYLQMNSLKPEDTAVYYCNVDITGYEDDYWGQGTQVTVSS”: the “polyreactivity (PSR sort gate)” value was “low polyreactivity”.

Regarding “QVHLVESGGGLVQAGGSLRLSCAATGSTFPSYTMGWYRQAPGKERELVAVITLRGGSTYYADSVKGRFTISRDNAKNTVYLQMNSLKPEDTAVYYCAANGQLQGWFDMYYWGQGTQVTVSS”, the “polyreactivity (PSR sort gate)” value is reported as “low polyreactivity”. In the case of “QVQLVESGGGLVQAGGSLRLSCAASGSTFYPYAMGWYRQAPGNERELVAALDRGGSTSYADSVKGRFTISRDNAKNTVYLQMIRLKPEDTAVYYCAVARGGRRKYEYWGQGTQVTVSS”, the “polyreactivity (PSR sort gate)” value was “low polyreactivity”. Next, “QVQLVESGGGLVQAGGSLRLSCAASGSIFGYYTMGLYRQAPGKERELVAAITSGGSTNYADSVKGRFTISRDNAKNTVYLQMNSLKPEDTAVYYCAKVSYYPWRYDYWGQGTQVTVSS”: “low polyreactivity”; “QVQLVESGGGLVQAGGSLRLSCAASGRTFGYNVMGWYRQAPGKERELVAAINRGGGSTYYADSVKGRFTISRDNANNTVYLQMNSLKPEDTAVYYCIKRYRVWFDYWGQGTQVTVSS”: “high polyreactivity”. With “QVQLVESGGGLVQAGCSLRLIFAASGSIFIGYAMGWYRQAPGKERELVATITNGGSTYYADSVKGRFTISRDNAKNTVYLQMNSLKPEDSAVYYCNKPTYQWGQGTQVTVSS”, the “polyreactivity (PSR sort gate)” value is recorded as “high polyreactivity”.

On to “QVQLVESGGVLVQAGGSLRLSCAASGRIFWLNAMGWYRQAPGKEREFVASITYGSDSTYYADSVKGRFTISRDNAKNTVYLQMNSRTPEDTAVYYCNREGWHYGPYGYWGQGTQVTVSS”, for which the “polyreactivity (PSR sort gate)” value is “low polyreactivity”. As to “QDDLVESGGGLVQAGGSLRFRGAASGYTFEKYAMGWKRQAPGKERELFASISWSGGRTRYADSVKGRFTISRDNAKNTDSLQMNSLQPEDTAVDYCAARGAYKSGYNRNEYWGQGTQVTVSS”, the “polyreactivity (PSR sort gate)” value is reported as “high polyreactivity”. For the sequence “QVQLVESGGGLVQAGGRLRLSSADYGITIELYVMGWYRQAPGKERELVAAINRGTSTYYADSVKGRFTISRDNAKNTVYLQMNSLKPEDTAVYYCAAESGVVALYRYDYWGQGTQVTVSS”, the “polyreactivity (PSR sort gate)” value is “low polyreactivity”. On to “QVQLVESGGGLVHAGGSLRLSCAASGRIFPSYAMGWYRQAPGKERELVAAISYSGASTYYADSVKGRFTISRDNAKNTVYLQMNSLKPEDTAVYYCATDHESVRVLVSSTSDYDYWGQGTQVTVSS”, for which the “polyreactivity (PSR sort gate)” value is “low polyreactivity”. Regarding “QVQLVESGGGLVQAGGSLRLSCAASGSTLPYYAMGWYRQAPGKERELVAAITSSGGDTYYADSVKGRFTISRDNAKNTVYLQMNSLKPEDTAVYYCAKSYSARSTVRKLFYFAYDYWGQGTQVTVSS”, the “polyreactivity (PSR sort gate)” value was “low polyreactivity”. Next, “QVQLVESGGGLVQAGGSLRLSCAASGSIFGYYAMGWYRQAPGKERELVARIRSTGSTNYADSVKGRFTISRDNAKNTVYLQMNSLKPEDTAVFYCNKLAHRKGGYWGQGTQVTVSS”: “high polyreactivity”; “QVQLVESGGGLVQAGGSLRLSCAASGFIFVLYTMGWYRQAPGKEREMVASITQSGGSTYYADSVKGRFTISRDNAKNTVYLQMNSLKPEDTAVYYCAAVWAHEWWELDYWGQGTQVTVSS”: “low polyreactivity”; “QVQLVESGGGLVLAGGSLRLSCAASGRIFLRNAMGWYRQAPGKVRELVATITSRGGSTYYADSVKGRFTISRDKAKNTVYLQMNSLKPEDTAVYYCAADPRRYRGFGYVYGGFYYWGQGTQVTVSS”: “low polyreactivity”.
